These results are taken from patent US20150140043A1, “IMMUNOMODULATORY METHODS USING NOTCH AGONISTS” (INSTITUT NATIONAL DE LA SANTE DE LA RECHERCHE MEDICAL …, priority 2012, published 2015).

The test system of one assay is TGF-βRII RNA expression. Briefly: Quantitative real-time PCR of TGF-βRII transcripts in CD4+CD25- T cells. As to conditions: coated anti-CD3 and DL-4 or Jagged-1 for 3 hours, in the presence of GSI. The assay is classed as cell-based, human. Here is the method: FIG. 3: TGF-βRII expression on effector T cells after NOTCH ligands exposure • A) CD4^+CD25^−T cells were purified using Miltenyi microbeads from PBMC and cultured for 3 hours in coated wells with anti-CD3 (200 ng/ml) and NOTCH ligands (5 μg/ml) or IgG control (5 μg/ml). Quantitative real-time PCR was performed to measure the transcripts levels of TGF-βRII. Data shown are mean±SEM and are representative of 4 independent experiments. * indicates P<0.05. • B) Protein levels of TGF-βRII in CD4^+CD25^−T cells stimulated to DL-1, DL-4 and Jagged-1 using FACS analysis. Mean of fluorescence are represented±SEM. * indicates P<0.05.
CD4^+CD25^− T cells were cultured for 3 hours in coated wells with anti-CD3 (200 ng/ml) and NOTCH ligands (5 μg/ml) or IgG control (5 μg/ml). Total RNA was extracted with Trizol (Invitrogen) and purified by chloroform extraction. RNA was then reverse transcribed using 1 mM oligodT and the Superscript™ HH Rnase H-reverse transcriptase (Invitrogen Life technologies) according to the manufacturer's instructions. Quantitative PCR was performed in a LightCycler System (Roche diagnostics) using a SYBR Green PCR kit from Roche Diagnostics. The cDNA input for each population was normalized to obtain equivalent signals with Splicing Factor 3A1 (SF3A1) used as housekeeping gene. Primers used were: […]
Active TGF-β mediates its biological functions by binding to TGF-β type I and type II receptors (TGF-βRII). Therefore, the effects of NOTCH activation on TGF-βRII expression of effector T cells were first investigated. […] This effect is abrogated in the presence of GSI (P<0.05 for comparison with culture performed without GSI vehicle).

The test system of assay [1] is CD4+CD25- T cell proliferation. Briefly: Suppression assay: CD4+CD25- T cells co-cultured with Treg plus anti-CD3, with or without g-secretase inhibitor, [3H]thymidine incorporation. The assay is classed as cell-based, human. The conditions noted are these: for Treg-mediated suppression (percentage of inhibition of CD4+CD25- T cell proliferation): GSI added at the beginning of the coculture (10 μM), anti-CD3 1 μg/ml, 5 days, mean+/-SD. Here is the method:
FIG. 1: NOTCH signalling is involved in Treg mediated inhibition of anti-CD3 stimulated CD4^+CD25^− T cell proliferation • A) Various ratio of CD4^+CD25^− T cells and CD4^+CD25^high T cells were cultured for 5 days in coated wells with anti-CD3 (1 μg/ml) in the presence or not of inhibitor of g-secretase (GSI 10 μM). Percentages of inhibition were calculated from the raw data using the equations: 1—(mean cpm of co-culture wells divided by mean cpm of CD4^+CD25^− cells cultured alone)×100. The data represent the mean±SEM and are representative of 5 independent experiments. * indicates P<0.05. • B) CD4^+CD25^−T cells were cultured for 18 hours in coated wells with anti-CD3 and NOTCH ligands (5 μg/ml) or IgG control (5 μg/ml). Then, T cells were washed and incubated for 5 days in coated wells with anti-CD3 in the absence or presence of Treg at ratio 1:8. The data represent the mean±SEM of inhibition of T cell proliferation of 5 independent experiments.
Peripheral blood mononuclear cells were separated by Ficoll-Hypaque centrifugation (Amersham Biosciences) from buffy coats obtained from healthy blood donors (EFS, Créteil). CD4^+ CD25^− T cells and CD4^+CD25^high T cells were isolated using a CD4^+ T cell enrichment column and a human CD4^+CD25^+ Treg isolation kit purchased from Miltenyi Biotec. CD4^+CD25^− cells and CD4^+CD25^+ cells were enriched to greater than 95% purity. […]
A total of 2.5×10^4 CD4^+CD25^− T cells were cultured with various ratios of CD4^+CD25^high cells and 1 μg/ml of anti-CD3 for 5 days, in the presence or absence of 10 μm of the gamma-secretase inhibitor Compound E. A total of […] [^3H] thymidine (Amersham Pharmacia) was added to the wells during the last 16 hours of culture. The cells were then harvested and assessed for [^3H] thymidine incorporation using a liquid scintillation counter. Results were expressed as mean cpm of quadriplicate culture wells.
Percentage of inhibition was calculated as follows: 1−(mean cpm of co-culture wells divided by mean cpm of CD4^+CD25^− cells cultured alone)×100. […]

For assay [2], the target named is NOTCH on human CD4+CD25- effector T cells. Briefly: cell-based or functional assay.

Regarding `C[C@H](NC(=O)Cc1cc(F)cc(F)c1)C(=O)N[C@H]1N=C(c2ccccc2)c2ccccc2N(C)C1=O` [GSI, Compound E], in the assay on TGF-βRII RNA expression, the “Effect of GSI on the DL-4 / Jagged-1 induced increase in TGF-βRII RNA expression” value was “abrogated”. In addition, the “Treg-mediated suppression (percentage of inhibition of CD4+CD25- T cell proliferation)” value in assay [1] (Treg/Effector ratio 1:4) was 46.9%; in assay [1] (Treg/Effector ratio 1:8) it was 49.3%. In assay [1] (no Treg, data not shown), the “Effect on proliferation of CD4+CD25- T cells cultured alone” value is given as “did not affect the proliferation”.

As to “DL-1-Fc (from UniProt O00548 18-545) (Fc fusion)”, in assay [2], the Percentages of inhibition of cell proliferation (CD4+CD25- T cells pre-exposed to ligand, co-cultured with Treg at ratio 1:8) was 64.8%; the expression of TGF-βRII on CD4+CD25- T cells after 48 hours on ligand (flow cytometry, MFI; IgG control MFI 53) is 85 MFI; the percentage of inhibition of CD4+CD25- T cell proliferation with anti-CD3, ligand and TGF-β (0.1 ng/ml) is 42.9%.

In the case of “DL-4-Fc (from UniProt Q9NR61 27-529) (Fc fusion)”, in assay [2], the Percentages of inhibition of cell proliferation (CD4+CD25- T cells pre-exposed to ligand, co-cultured with Treg at ratio 1:8) came out at 64.2%; the TGF-βRII RNA expression, fold increase against IgG control (real-time PCR, 3 hours) came to 4.4 fold; the expression of TGF-βRII on CD4+CD25- T cells after 48 hours on ligand (flow cytometry, MFI; IgG control MFI 53) was 166 MFI; the mean inhibition of T cell proliferation (co-culture with Treg at ratio 1:16 on immobilized ligand) was 47%. In addition, the percentage of inhibition of CD4+CD25- T cell proliferation with anti-CD3, ligand and TGF-β (0.1 ng/ml) in assay [2] is 74.1%.

For the compound “Jagged-1-Fc (from UniProt P78504 34-1067) (Fc fusion)”, in assay [2], the Percentages of inhibition of cell proliferation (CD4+CD25- T cells pre-exposed to ligand, co-cultured with Treg at ratio 1:8) was determined as 65%; the TGF-βRII RNA expression, fold increase against IgG control (real-time PCR, 3 hours) was determined as 2.8 fold; the expression of TGF-βRII on CD4+CD25- T cells after 48 hours on ligand (flow cytometry, MFI; IgG control MFI 53) was determined as 130 MFI; the mean inhibition of T cell proliferation (co-culture with Treg at ratio 1:16 on immobilized ligand) came to 65%. In assay [2], the percentage of inhibition of CD4+CD25- T cell proliferation with anti-CD3, ligand and TGF-β (0.1 ng/ml) is 87.8%.
